The source of these data is article PMC11784651 (mAbs, 2025).

The assay deals with human CD38 extracellular domain (hsCD38 ECD) used for crystallization (Homo sapiens, stabilised). Nature of the assay: crystal structure.

B1: anti-CD38 B6-D9 Fab (Fab, V domains shown)
VH: QVQLVQSGAEVKKPGSSVKVSCKASGGFFSHYIINWVRQAPGQGLEWMGRVIPVIDDAYYAQKFQGRVTITADESTSTAYMELSSLRSEDTAVYYCARSRGYYGSFYFDIWGQGTLVTVSS
VL: not shown
On to B1, for which the binding result is reported as “binds”.

B2: anti-CD38 E2-RecA Fab (Fab, V domains shown)
VH: QVQLVQSGAEVKKPGSSVKVSCKASGLPDATYAIGWVRQAPGQGLEWMGRIIPRLDAEHYAQKFQGRVTITADESTSTAYMELSSLRSEDTAVYYCARGLGYYLYSSYYFDIWGQGTLVTVSS
VL: not shown
B2: the binding result is “binds”.
